Values of other authors as cited in US20200222508A1 (Arecor Limited, priority 2016, published 2020).

Conditions: in vivo

Substance	circulating half-life
Albiglutide: GLP-1 dimer fused to human albumin, SEQ ID NO: 5	96 to 170 h
Dulaglutide: GLP-1 analogue consisting of GLP-1(7-37) covalently linked to an Fc fragment of human IgG4, SEQ ID NO: 6	approximately 5 days
Lixisenatide: analogue of exendin-4, proline omitted at position 38, six lysine residues added at C-terminal, SEQ ID NO: 8	2 to 4 h
